Results taken from patent publication US6808893.

Key:
[1] = biological target: EAAT4, full-length glutamate transporter (rat) (UniProt O35921); test: cell-based or functional assay
[2] = biological target: GTRAP4-48 (glutamate transporter 4 associated protein), full-length (rat) (UniProt Q9ES67); test: cell-based or functional assay
Sequence of GTRAP4-48 (glutamate transporter 4 associated protein), full-length (rat) (Q9ES67 whole entry): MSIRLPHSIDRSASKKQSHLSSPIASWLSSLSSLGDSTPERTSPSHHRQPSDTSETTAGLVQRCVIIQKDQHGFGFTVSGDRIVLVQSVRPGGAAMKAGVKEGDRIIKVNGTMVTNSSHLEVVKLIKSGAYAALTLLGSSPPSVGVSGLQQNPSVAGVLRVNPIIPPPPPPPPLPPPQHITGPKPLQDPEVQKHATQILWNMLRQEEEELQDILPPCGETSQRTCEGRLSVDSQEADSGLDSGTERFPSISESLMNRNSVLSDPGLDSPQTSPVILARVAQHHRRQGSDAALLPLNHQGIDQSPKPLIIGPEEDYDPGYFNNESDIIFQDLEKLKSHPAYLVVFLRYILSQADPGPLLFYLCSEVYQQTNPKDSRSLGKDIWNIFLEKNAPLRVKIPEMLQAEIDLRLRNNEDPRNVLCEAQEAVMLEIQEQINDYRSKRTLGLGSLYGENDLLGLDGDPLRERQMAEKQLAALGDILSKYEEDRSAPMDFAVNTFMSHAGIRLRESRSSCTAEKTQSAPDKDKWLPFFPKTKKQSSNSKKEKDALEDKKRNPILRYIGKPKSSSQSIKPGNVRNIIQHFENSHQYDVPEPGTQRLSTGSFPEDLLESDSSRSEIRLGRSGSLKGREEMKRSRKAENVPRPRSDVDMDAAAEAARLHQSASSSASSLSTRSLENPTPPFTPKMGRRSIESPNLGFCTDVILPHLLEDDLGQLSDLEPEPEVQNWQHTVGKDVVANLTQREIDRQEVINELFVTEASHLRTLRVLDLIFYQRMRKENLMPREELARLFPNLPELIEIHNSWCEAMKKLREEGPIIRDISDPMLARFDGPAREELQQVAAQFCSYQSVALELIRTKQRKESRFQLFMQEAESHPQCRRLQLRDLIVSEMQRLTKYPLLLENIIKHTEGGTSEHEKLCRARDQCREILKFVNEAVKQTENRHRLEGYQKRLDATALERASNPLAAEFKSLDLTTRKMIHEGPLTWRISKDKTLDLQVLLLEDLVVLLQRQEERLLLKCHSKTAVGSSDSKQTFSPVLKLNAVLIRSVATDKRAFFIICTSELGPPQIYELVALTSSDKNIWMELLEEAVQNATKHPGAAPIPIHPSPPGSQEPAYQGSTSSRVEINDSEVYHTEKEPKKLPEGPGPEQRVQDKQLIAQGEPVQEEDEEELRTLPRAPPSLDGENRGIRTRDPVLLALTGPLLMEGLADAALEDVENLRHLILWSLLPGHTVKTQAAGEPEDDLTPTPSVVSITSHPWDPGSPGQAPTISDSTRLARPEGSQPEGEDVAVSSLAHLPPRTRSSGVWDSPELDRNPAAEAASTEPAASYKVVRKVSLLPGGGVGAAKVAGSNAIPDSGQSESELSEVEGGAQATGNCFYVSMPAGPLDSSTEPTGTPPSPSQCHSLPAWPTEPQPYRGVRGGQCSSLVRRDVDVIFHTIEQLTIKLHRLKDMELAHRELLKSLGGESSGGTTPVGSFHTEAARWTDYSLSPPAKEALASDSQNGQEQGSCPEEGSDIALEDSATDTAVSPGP

Sequence of EAAT4, full-length glutamate transporter (rat) (O35921 whole entry): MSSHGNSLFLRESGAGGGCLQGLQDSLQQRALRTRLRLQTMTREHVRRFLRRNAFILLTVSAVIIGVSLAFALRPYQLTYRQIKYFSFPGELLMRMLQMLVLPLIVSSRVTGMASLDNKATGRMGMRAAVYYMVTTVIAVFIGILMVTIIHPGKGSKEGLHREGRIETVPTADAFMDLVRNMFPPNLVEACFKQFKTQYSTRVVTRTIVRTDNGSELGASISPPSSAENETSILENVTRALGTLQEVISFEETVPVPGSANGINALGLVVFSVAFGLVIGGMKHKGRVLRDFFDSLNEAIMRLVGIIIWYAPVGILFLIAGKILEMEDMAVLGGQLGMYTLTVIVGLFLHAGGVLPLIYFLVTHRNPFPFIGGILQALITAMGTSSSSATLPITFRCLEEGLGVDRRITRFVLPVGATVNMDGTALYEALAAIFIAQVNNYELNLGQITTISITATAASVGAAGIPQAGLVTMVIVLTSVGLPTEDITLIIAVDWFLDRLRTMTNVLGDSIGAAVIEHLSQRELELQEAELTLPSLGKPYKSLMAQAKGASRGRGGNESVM

| Km of Na+-dependent L-[3H]-glutamate uptake with GTRAP41 [1] | Na+-dependent glutamate transport in HEK-rEAAT4 cells [1] | Vmax of Na+-dependent L-[3H]-glutamate uptake with GTRAP41 [1] | GTRAP4-48 mediated increase of EAAT4 uptake activity in HEK-rEAAT4 cells [2] | Substance |
| --- | --- | --- | --- | --- |
| 11 µM | 2 fold | 605 pmol/mg/min |  | GTRAP4-41 (glutamate transporter 4 associated protein), full-length, Q9QWN8 2-2388 |
|  |  |  | 25% | myc-tagged construct encoding the last 77 amino acids of EAAT4 (from UniProt O35921 485-561) |
